This is an account of results in IntAct's records for PubMed 16754960.

B1: Ras-related protein Rab-21 (Mus musculus), P35282 (parent)
chain: MAAAGGGAAAAAGRAYSFKVVLLGEGCVGKTSLVLRYCENKFNDKHITTLQASFLTKKLNIGGKRVNLAIWDTAGQERFHALGPIYYRDSNGAILVYDVTDEDSFQKVKNWVKELRKMLGNEICLCIVGNKIDLEKERHVSIQEAESYAESVGAKHYHTSAKQNKGIEELFLDLCKRMIETAQVDERAKGNGSSQAGAARRGVQIIDDEPQAQSSGGCCSSG

The variants in experiment [1] derive from B1. The settings on record: with itb1_human ITGB1, P05556.
Variants of B1 are the subject of the experiment “ita2_human ITGA2, P17301”. The settings on record: with ita2_human ITGA2, P17301.
The variants in experiment [2] derive from B1. The settings on record: with itb1_human ITGB1, P05556. The source holds these as a separate data set.

Chain of ita2_human ITGA2, P17301 (P17301 whole entry): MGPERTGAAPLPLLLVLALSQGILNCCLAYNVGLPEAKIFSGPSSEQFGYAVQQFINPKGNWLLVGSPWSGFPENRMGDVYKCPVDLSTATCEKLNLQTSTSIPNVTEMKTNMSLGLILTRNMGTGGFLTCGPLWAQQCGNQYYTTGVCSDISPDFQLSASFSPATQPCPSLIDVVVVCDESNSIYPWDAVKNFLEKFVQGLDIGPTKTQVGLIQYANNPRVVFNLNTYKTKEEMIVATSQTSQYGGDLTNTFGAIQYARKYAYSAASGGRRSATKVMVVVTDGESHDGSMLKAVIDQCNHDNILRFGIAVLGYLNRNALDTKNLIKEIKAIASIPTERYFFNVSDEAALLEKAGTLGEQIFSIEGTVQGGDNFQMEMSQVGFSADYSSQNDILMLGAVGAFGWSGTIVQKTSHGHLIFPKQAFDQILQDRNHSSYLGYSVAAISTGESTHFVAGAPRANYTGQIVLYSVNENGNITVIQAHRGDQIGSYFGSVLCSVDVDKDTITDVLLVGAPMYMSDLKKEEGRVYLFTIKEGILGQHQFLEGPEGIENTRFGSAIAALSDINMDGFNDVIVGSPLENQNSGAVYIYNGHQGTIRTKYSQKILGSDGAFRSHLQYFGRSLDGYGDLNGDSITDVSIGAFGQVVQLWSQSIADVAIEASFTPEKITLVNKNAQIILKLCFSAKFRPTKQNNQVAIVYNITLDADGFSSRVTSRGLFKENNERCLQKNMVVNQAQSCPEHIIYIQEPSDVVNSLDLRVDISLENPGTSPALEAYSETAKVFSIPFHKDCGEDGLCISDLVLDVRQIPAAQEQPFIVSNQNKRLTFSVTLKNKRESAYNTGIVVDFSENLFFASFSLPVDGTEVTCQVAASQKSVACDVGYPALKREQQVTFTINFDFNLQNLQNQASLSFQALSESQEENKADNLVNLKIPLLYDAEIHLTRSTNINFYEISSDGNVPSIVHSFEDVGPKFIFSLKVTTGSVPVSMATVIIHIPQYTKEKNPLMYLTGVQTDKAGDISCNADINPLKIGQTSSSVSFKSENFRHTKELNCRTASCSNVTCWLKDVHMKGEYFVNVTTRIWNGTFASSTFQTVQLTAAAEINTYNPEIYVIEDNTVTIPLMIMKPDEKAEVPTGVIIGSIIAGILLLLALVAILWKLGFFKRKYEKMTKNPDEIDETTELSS
Chain of itb1_human ITGB1, P05556 (P05556 whole entry): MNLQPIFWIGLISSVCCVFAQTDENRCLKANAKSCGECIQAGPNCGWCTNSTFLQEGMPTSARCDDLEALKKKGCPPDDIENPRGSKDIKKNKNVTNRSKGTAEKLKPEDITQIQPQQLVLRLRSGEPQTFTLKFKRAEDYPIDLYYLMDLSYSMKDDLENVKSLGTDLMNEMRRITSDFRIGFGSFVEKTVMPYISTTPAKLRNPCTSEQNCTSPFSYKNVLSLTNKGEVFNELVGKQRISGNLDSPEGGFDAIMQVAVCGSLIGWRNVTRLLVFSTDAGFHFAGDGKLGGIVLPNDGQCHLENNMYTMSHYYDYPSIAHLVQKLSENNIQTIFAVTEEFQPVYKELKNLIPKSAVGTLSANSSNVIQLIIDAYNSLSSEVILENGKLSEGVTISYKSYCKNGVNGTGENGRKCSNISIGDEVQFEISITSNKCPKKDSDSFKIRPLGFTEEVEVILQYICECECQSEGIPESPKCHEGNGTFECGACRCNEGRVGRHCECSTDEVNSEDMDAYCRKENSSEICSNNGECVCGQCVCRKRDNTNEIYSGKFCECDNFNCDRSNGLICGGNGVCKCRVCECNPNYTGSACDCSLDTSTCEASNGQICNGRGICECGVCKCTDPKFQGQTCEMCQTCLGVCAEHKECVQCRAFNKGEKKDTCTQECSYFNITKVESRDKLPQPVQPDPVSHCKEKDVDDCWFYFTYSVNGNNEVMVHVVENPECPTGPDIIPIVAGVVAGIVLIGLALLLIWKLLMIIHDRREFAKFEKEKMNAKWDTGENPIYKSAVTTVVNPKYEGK

In the case of Q76L, the “effect of a mutation on the interaction” value in the experiment with itb1_human ITGB1, P05556 [1] is recorded as “increasing interaction”; with ita2_human ITGA2, P17301, “increasing interaction”.
Consider T31N, for which the “effect of a mutation on the interaction” value in the experiment with itb1_human ITGB1, P05556 [2] is recorded as “decreasing interaction”; with ita2_human ITGA2, P17301, “decreasing interaction”.
